Biological target: PIN1 (UniProt Q13526)
Assay: His-tagged peptide binding to GST-PIN1
Conditions: reference: nonphosphorylated S203/P204 peptide; sites S203

- binding against the reference: stronger
Substance: PGK1 (phosphoglycerate kinase 1) oligopeptide containing S203/P204, borders not given (from UniProt P00558) pS203/P204 peptide
